Earlier results in PMC11409674, “Raffinocyclicin is a novel plasmid-encoded circular bacteriocin produced by Lactococcus raffinolactis with broad-spectrum activity against many gram-positive food pathogens” (Applied and environmental microbiology, 2024).

Experiments:
[1] = test system: proteases; set-up: method as in 4 sources, ref 33 = [33]; PMID 21948835; doi:10.1128/AEM.06348-11; 33 Masuda Y Ono H Kitagawa H Ito H Mu F Sawa N Zendo T Sonomoto K Identification and characterization of leucocyclicin Q, a novel cyclic bacteriocin produced by Leuconostoc mesenteroides TK41401 Appl ||| ref 27 = [27]; PMID 21057028; doi:10.1128/AEM.01173-10; 27 Borrero J Brede DA Skaugen M Diep DB Herranz C Nes IF Cintas LM Hernández PE Characterization of garvicin ML, a novel circular bacteriocin produced by Lactococcus garvieae DCC43, isolated from mall ||| ref 30 = [30]; PMID 29177092; doi:10.1099/mgen.0.000134; 30 van Heel AJ Montalban-Lopez M Oliveau Q Kuipers OP Genome-guided identification of novel head-to-tail cyclized antimicrobial peptides, exemplified by the discovery of pumilarin Microb Genom 2017 3 ||| ref 29 = [29]; PMID 18552180; doi:10.1128/AEM.00817-08; 29 Martin-Visscher LA van Belkum MJ Garneau-Tsodikova S Whittal RM Zheng J McMullen LM Vederas JC Isolation and characterization of carnocyclin A, a novel circular bacteriocin produced by Carnobacteri; details: cited from earlier work
[2] = test system: L. lactis; set-up: method as in 7 sources, ref 29 = [29]; PMID 18552180; doi:10.1128/AEM.00817-08; 29 Martin-Visscher LA van Belkum MJ Garneau-Tsodikova S Whittal RM Zheng J McMullen LM Vederas JC Isolation and characterization of carnocyclin A, a novel circular bacteriocin produced by Carnobacteri ||| ref 30 = [30]; PMID 29177092; doi:10.1099/mgen.0.000134; 30 van Heel AJ Montalban-Lopez M Oliveau Q Kuipers OP Genome-guided identification of novel head-to-tail cyclized antimicrobial peptides, exemplified by the discovery of pumilarin Microb Genom 2017 3 ||| ref 31 = [31]; PMID 29030449; doi:10.1128/AEM.01801-17; 31 Borrero J Kelly E O’Connor PM Kelleher P Scully C Cotter PD Mahony J van Sinderen D Plantaricyclin a, a novel circular bacteriocin produced by Lactobacillus plantarum NI326: purification, character ||| ref 32 = [32]; PMID 17464077; doi:10.1099/mic.0.2006/005967-0; 32 Wirawan RE Swanson KM Kleffmann T Jack RW Tagg JR Uberolysin: a novel cyclic bacteriocin produced by Streptococcus uberis Microbiology 2007 153 1619 1630 10.1099/mic.0.2006/005967-0 17464077 ||| ref 27 = [27]; PMID 21057028; doi:10.1128/AEM.01173-10; 27 Borrero J Brede DA Skaugen M Diep DB Herranz C Nes IF Cintas LM Hernández PE Characterization of garvicin ML, a novel circular bacteriocin produced by Lactococcus garvieae DCC43, isolated from mall ||| ...; details: five strains of L. lactis; cited from earlier work

Substance | sensitivity to proteolytic activity [1] | inhibition of L. lactis strains tested [2]
pumilarin | low-sensitivity profile | –
plantaricyclin A | – | inhibited all five strains
lactocyclicin Q | resistant | –
